# The RNAGym collection of RNA variant scans (doi:10.1073/pnas.2313332121)
# Variants at the floor of the assay were thinned out.
# B1: TPR 5TU (parent)
# chain: GGAUCUUCUCGAUCUAACAAAAAAGACAAAUCUGCCACAAAGCUUGAGAGCAUCUUCGGAUGCAGAGGCGGCAGCCUUCGGUGGCGCGAUAGCGCCAACGUUCUCAACUAUGACACGCAAAACGCGUGCUCCGUUGAAUGGAGUUUAUCAUG
# Variants of: B1
# Experiment: polymerase ribozyme fitness, log enrichment relative to wild type (log ratio); higher = more active; in vitro selection for triplet polymerase activity
# How it was run: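 Mutant libraries of both subunits of a heterodimeric triplet polymerase ribozyme were PCR-built, transcribed, and selected once in triplicate, with frozen incubation at −7 °C and capture of gel-excised extended constructs on streptavidin beads before RT-PCR. Illumina sequencing of input and output libraries was filtered to genotypes with ≥10 input reads and ≥1 read per output. Fitness is the logarithm of genotype enrichment over wild-type enrichment, using inverse-variance-weighted replicate averages. The logarithm is base 2.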
row,Variant,polymerase ribozyme fitness (log ratio)
1,GGAUCUUCUCGAUCUAACAAAAAAGACAAAUCUGCCACAAAGCUUGAGAGCAUCUUCGGAUGCAGAGGCGGCAGCCUUCGGUGGUGCGAUAGCGACAACGUUCUCAACUAUGACACGCAAAACGCGGGCUCCGUUGAAUGGAGUUUAUCAUG [C85U C95A U127G],-3.88
2,GGAUCUUCUCGAUCUAACAAAAAAGACAAAUCUGCCACAAAGCUUGAGAGCAUCUUCGGAUGCAGAGGCGGCAGCCUUCGGUGGUGCGAUAGCGCCAACGUUCUCAACUAUGACACGCAAAACGCGUGCUCCGUUGAAUGGAGUUUAUCUUA [C85U A150U G152A],-0.481
3,GGAUCUUCUCGAUCUAACAAAAAAGACAAAUCUGCCACAAAGCUUGAGAGCAUCUUCGGAUGCAGAGGCGGCAGCCUUCGGUGGUGCGAUAGCGCAAACGUUCUCAACUAUGACAGGCAAAACGCGUGCUCCGUUGAAUGGAGUUUAUCAUG [C85U C96A C116G],-0.604
4,GGAUCUUCUCGAUCUAACAAAAAAGACAAAUCUGCCACAAAGCUUGAGAGCAUCUUCGGAUGCAGAGGCGGCAGCCUUCGGUGGUGCGAUAGCGGCAACGUUCUCAACUAUGACACGCUAAACGCGUGCUCCGUUGAAUGGAGUUUAUCAUG [C85U C95G A119U],-1.89
5,GGAUCUUCUCGAUCUAACAAAAAAGACAAAUCUGCCACAAAGCUUGAGAGCAUCUUCGGAUGCAGAGGCGGCAGCCUUCGGUGGUGCGAUAGCGCCAACGUUCUCAACUAUGACAGGCAAAACGCGUGCUCCGUUGAAUGGAGUAUAUCAUG [C85U C116G U145A],-2.57
6,GGAUCUUCUCGAUCUAACAAAAAAGACAAAUCUGCCACAAAGCUUGAGAGCAUCUUCGGAUGCAGAGGCGGCAGCCUUCGGUGGUGCGAUAGCGGCAACGUUCUCAACUAUGACACGCAAAACGCGUGCUCCGUUGAAUGGAGUUUAUCAUG [C85U C95G],-2.03
7,GGAUCUUCUCGAUCUAACAAAAAAGACAAAUCUGCCACAAAGCUUGAGAGCAUCUUCGGAUGCAGAGGCGGCAGCCUUCGGUGGUGCGAUAGUGCCAACGUUCUCAACUAUGACACGCAAAACGCGUGCUCCGGUGAAUGGAGUUUAUCAUG [C85U C93U U134G],-4.16
8,GGAUCUUCUCGAUCUAACAAAAAAGACAAAUCUGCCACAAAGCUUGAGAGCAUCUUCGGAUGCAGAGGCGGCAGCCUUCGGUGGUGCGAUAGCGACAACGUUCUCAACUAUGACACGCAAAACGCGUGCUCCGUUUACUGGAGUUUAUCAUG [C85U C95A G136U A138C],≤ -4.2
9,GGAUCUUCUCGAUCUAACAAAAAAGACAAAUCUGCCACAAAGCUUGAGAGCAUCUUCGGAUGCAGAGGCGGCAGCCUUCGGUGGUGCGAUAGUGCCAACGUUCUCAACUAUGACACGCAAAACGCGUGCUACGUUGAAUGGAGUUUAUCAUG [C85U C93U C131A],-2.94
10,GGAUCUUCUCGAUCUAACAAAAAAGACAAAUCUGCCACAAAGCUUGAGAGCAUCUUCGGAUGCAGAGGCGGCAGCCUUCGGUGGUGCGAUAGCGCGAACGUUCUCAACUAUGACACGCAAAACGCGUGCUCCGUCGAAUGGAGUUUAUCAUG [C85U C96G U135C],-2.57
11,GGAUCUUCUCGAUCUAACAAAAAAGACAAAUCUGCCACAAAGCUUGAGAGCAUCUUCGGAUGCAGAGGCGGCAGCCUUCGGUGGUGCGAUAGCGCCAACGUUCUCAACUAUGACACGCAAAACGCGUGCUCCGUUGAAUGGAGUUUAUCGUG [C85U A150G],-1.76
12,GGAUCUUCUCGAUCUAACAAAAAAGACAAAUCUGCCACAAAGCUUGAGAGCAUCUUCGGAUGCAGAGGCGGCAGCCUUCGGUGGUGCGAUAGCGCCAACGUUCUCAACUAUGACACGCAAAACGCGUGCUCCGUUGAAUGGAGUUUAUCCUG [C85U A150C],-2.26
13,GGAUCUUCUCGAUCUAACAAAAAAGACAAAUCUGCCACAAAGCUUGAGAGCAUCUUCGGAUGCAGAGGCGGCAGCCUUCGGUGGUGCGAUAGCGCCAACGUUCUCAAUUAUGACACGCAAAACGCGUGCUCCGUUGAAUGGAGUUUAUCAUG [C85U C108U],-3.1
14,GGAUCUUCUCGAUCUAACAAAAAAGACAAAUCUGCCACAAAGCUUGAGAGCAUCUUCGGAUGCAGAGGCGGCAGCCUUCGGUGGUGGGAUAGCGCCAACGUUCUCAACUAUGACACGCAAAACGCGUGCUCCGUUGAAUCGAGUUUAUCAUG [C85U C87G G140C],≤ -4.2
15,GGAUCUUCUCGAUCUAACAAAAAAGACAAAUCUGCCACAAAGCUUGAGAGCAUCUUCGGAUGCAGAGGCGGCAGCCUUCGGUGGUGCGAUAGCGCCAACGUUGUCAACUAUGACACGCAAAACGCGUGCUCCGUUGAAUGGAGUUUAUCAUG [C85U C103G],-3.48
16,GGAUCUUCUCGAUCUAACAAAAAAGACAAAUCUGCCACAAAGCUUGAGAGCAUCUUCGGAUGCAGAGGCGGCAGCCUUCGGUGGUGCGAUAGCGCCAACGUUGUCAAUUAUGACUCGCAAAACGCGUGCUCCGUUGAAUGGAAUUUAUCAUG [C85U C103G C108U A115U G143A],≤ -4.2
17,GGAUCUUCUCGAUCUAACAAAAAAGACAAAUCUGCCACAAAGCUUGAGAGCAUCUUCGGAUGCAGAGGCGGCAGCCUUCGGUGGUGCGAUAGCGCCAAGGUUCUCAACUAUGACACGCAAAACGCGUGCUCCGUUGAAUGGAGUUUAUCAUG [C85U C99G],-1.07
18,GGAUCUUCUCGAUCUAACAAAAAAGACAAAUCUGCCACAAAGCUUGAGAGCAUCUUCGGAUGCAGAGGCGGCAGCCUUCGGUGGUGCGAUAGCGCCAAUGUUCUCAACUAUGACACGCAAAACGCGUGCUCCGUUGAAUGGAGUUUAUCAUG [C85U C99U],-2.35
19,GGAUCUUCUCGAUCUAACAAAAAAGACAAAUCUGCCACAAAGCUUGAGAGCAUCUUCGGAUGCAGAGGCGGCAGCCUUCGGUGGUGCGAUAGCGCUAACGUUCUCAACUAUGACACGCAAAACGCCUGCUCCGUUGAAUGGAGUUUGUCAUG [C85U C96U G126C A147G],≤ -4.2
